Our source for the Tm values is the array DNA melting data of Ke et al..

Usually Tm stands for the temperature at the midpoint of the melting transition.

The series in a line: melting temperature; UV melt of duplexes.

As to “AATATATATAGAGTGGCCGCAA+TTGCGGCCACTCTATATATATT ((((((((((((((((((((((+))))))))))))))))))))))”, where the note is “sodium 0.12 M, strand 6 µM”, the Tm stood at 65.2 °C.

Regarding “TCCACACGGTAGTAAAATTAGGCTT+AAGCCTAATTTTACTACCGTGTGGA (((((((((((((((((((((((((+)))))))))))))))))))))))))”, the midpoint of thermal melting (Tm) (sodium 0.07 M, strand 2 µM) was 59.3 °C; the Tm (sodium 0.12 M, strand 2 µM) was 63.1 °C; the Tm (sodium 0.22 M, strand 2 µM) worked out at 67.3 °C; the Tm (sodium 0.62 M, strand 2 µM) worked out at 71.8 °C; the Tm (sodium 1.02 M, strand 2 µM) worked out at 73.8 °C.

As to “AACGCGCGTAGAGTGGCCGCAA+TTGCGGCCACTCTACGCGCGTT ((((((((((((((((((((((+))))))))))))))))))))))”, the Tm (sodium 0.12 M, strand 6 µM) came out at 77.3 °C.

As to “AAGCTATATATATCGAT+ATCGATATATATAGCTT (((((((((((((((((+)))))))))))))))))”, the Tm (sodium 0.12 M, strand 5 µM) amounted to 50.2 °C.
